According to IntAct's records for PubMed 12565857:

B1: Chromobox protein homolog 5 (Mus musculus), Q61686 (parent)
chain: MGKKTKRTADSSSSEDEEEYVVEKVLDRRMVKGQVEYLLKWKGFSEEHNTWEPEKNLDCPELISEFMKKYKKMKEGENNKPREKSEGNKRKSSFSNSADDIKSKKKREQSNDIARGFERGLEPEKIIGATDSCGDLMFLMKWKDTDEADLVLAKEANVKCPQIVIAFYEERLTWHAYPEDAENKEKESAKS
partner: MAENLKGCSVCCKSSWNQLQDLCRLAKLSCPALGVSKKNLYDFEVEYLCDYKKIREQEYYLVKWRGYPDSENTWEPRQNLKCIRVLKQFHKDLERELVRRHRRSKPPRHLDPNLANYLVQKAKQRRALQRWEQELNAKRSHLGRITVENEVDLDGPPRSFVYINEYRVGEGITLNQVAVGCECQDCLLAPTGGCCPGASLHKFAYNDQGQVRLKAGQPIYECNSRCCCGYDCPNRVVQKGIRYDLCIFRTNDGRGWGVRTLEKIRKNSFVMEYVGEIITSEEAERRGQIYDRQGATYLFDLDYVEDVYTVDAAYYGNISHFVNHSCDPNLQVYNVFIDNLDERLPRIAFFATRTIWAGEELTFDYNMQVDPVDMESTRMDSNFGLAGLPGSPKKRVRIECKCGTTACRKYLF

Variants of: B1
Conditions: with suv91_mouse Suv39h1, O54864

| effect of a mutation on the interaction | Variant |
| --- | --- |
| disrupting interaction | I165E;Y168E |
